The text below walks through data of patent publication US10766960 (dated 2020).

What all share (experiment): SPR
In one experiment the target is T1, FcgRIIa R (human, UniProt P12318).
T1 chain: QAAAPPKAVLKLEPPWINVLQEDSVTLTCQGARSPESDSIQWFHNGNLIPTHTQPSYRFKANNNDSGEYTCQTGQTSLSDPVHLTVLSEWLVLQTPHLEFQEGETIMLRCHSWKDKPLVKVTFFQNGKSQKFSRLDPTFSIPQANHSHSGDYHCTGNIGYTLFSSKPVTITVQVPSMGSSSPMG

In the next experiment the target is T2, FcgRIa (human, UniProt P12314).
T2 chain: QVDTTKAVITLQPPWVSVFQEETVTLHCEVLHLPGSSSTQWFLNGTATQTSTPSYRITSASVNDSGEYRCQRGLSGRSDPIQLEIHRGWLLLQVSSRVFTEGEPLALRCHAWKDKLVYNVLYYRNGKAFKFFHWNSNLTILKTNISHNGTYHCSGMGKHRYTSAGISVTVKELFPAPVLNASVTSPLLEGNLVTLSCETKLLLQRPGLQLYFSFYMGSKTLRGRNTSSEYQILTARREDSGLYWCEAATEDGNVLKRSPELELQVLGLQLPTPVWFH

In another experiment the target is FcgRIIIa V (human, UniProt P08637).
The target in the next experiment is T3, FcgRIIa H (human, UniProt P12318).
T3 chain: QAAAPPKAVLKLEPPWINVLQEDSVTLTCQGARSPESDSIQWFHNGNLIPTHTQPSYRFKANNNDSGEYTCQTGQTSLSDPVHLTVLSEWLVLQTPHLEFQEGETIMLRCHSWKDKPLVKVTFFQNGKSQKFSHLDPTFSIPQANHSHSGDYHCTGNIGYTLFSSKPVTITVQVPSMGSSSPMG

In the next experiment the target is T4, FcgRIIb (human, UniProt P31994).
T4 chain: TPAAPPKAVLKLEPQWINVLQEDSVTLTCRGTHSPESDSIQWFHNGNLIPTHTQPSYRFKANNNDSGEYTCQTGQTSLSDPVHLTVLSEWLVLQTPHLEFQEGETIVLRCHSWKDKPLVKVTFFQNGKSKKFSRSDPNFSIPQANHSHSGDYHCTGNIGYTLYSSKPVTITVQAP

The target of the next experiment is FcgRIIIa F (human, UniProt P08637).
Sequence of FcgRIIIa F (P08637 17-208): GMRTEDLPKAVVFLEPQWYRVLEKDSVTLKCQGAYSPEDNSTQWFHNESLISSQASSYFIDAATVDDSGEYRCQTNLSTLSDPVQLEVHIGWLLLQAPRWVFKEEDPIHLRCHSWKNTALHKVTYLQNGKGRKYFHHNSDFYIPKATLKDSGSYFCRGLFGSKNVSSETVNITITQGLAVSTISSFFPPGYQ

Sequence of FcgRIIIa V (P08637 17-208 F176V): as the sequence (P08637 17-208) above, with F160V counted along it

B1: H240-Kn226/H240-Hl214/L73-k0 (antibody)
chain 1: QDQLVQSGAEVKKPGASVKVSCKASGFNIKDTYIQWVRQAPGQGLEWMGRIDPLRKQTKYREKFEGRVTITADTSTNTAYMELSSLRSEDTAVYYCVRSGREFDYWGQGTLVTVSSASTKGPSVFPLAPSSKSTSGGTAALGCLVKDYFPEPVTVSWNSGALTSGVHTFPAVLQSSGLYSLSSVVTVPSSSLGTQTYICNVNHKPSNTKVDKKVEPKSCDKTHTCPPCPAPEFQWGPIVFLFPPKPKDTLMISRTPEVTCVVVDVSDEEPEVKFNWYVDGVEVHNAKTKPREEQYNATYRVVSVLTVLHQDWLNGKEYKCKVSNKALPAPIEKTISKAKGQPREPQVCTLPPSRDELTKNQVSLWCLVKGFYPSDIAVEWESNGQPENNYKTTPPVLDSDGSFFLYSKLTVDKSRWQQGNVFSCSVMHEALHNHYTQKSLSLSP
chain 2: QDQLVQSGAEVKKPGASVKVSCKASGFNIKDTYIQWVRQAPGQGLEWMGRIDPLRKQTKYREKFEGRVTITADTSTNTAYMELSSLRSEDTAVYYCVRSGREFDYWGQGTLVTVSSASTKGPSVFPLAPSSKSTSGGTAALGCLVKDYFPEPVTVSWNSGALTSGVHTFPAVLQSSGLYSLSSVVTVPSSSLGTQTYICNVNHKPSNTKVDKKVEPKSCDKTHTCPPCPAPELLGGPSVFLFPPKPKDTLMISRTPEVTCVVVDVSHEEPEVKFNWYVDGVEVHNAKTKPREEQYNSTYRVVSVLTVLHQDWLNGKEYKCKVSNDALPFPIEETISKAKGQPREPQVYTLPPSRCELTKNQVSLSCAVKGFYPSDIAVEWESNGQPENNYKTTPPVLDSDGSFFLVSKLTVDKSRWQQGNVFSCSVMHEALHNHYTQKSLSLSP
chain 3: DIQMTQSPSSLSASVGDRVTITCRASQDIHKYIAWYQQKPGQAPRLLIQYTSTLQPGVPSRFSGSGSGTDYTFTISSLQPEDIATYYCLQYEQLRTFGGGTKVEIKRTVAAPSVFIFPPSDEQLKSGTASVVCLLNNFYPREAKVQWKVDNALQSGNSQESVTEQDSKDSTYSLSSTLTLSKADYEKHKVYACEVTHQGLSSPVTKSFNRGEC
The Kd is the equilibrium constant for the complex coming apart. Read a high Kd as weaker binding. B1: the Kd with FcgRIIa R was 360 nM; with FcgRIa, 0.089 nM; with FcgRIIIa V, 0.77 nM; with FcgRIIa H, 160 nM; with FcgRIIb it was 3400 nM; with FcgRIIIa F, 1.9 nM.

B2: H240-Kn202/H240-Hl210/L73-k0 (antibody)
chain 1: QDQLVQSGAEVKKPGASVKVSCKASGFNIKDTYIQWVRQAPGQGLEWMGRIDPLRKQTKYREKFEGRVTITADTSTNTAYMELSSLRSEDTAVYYCVRSGREFDYWGQGTLVTVSSASTKGPSVFPLAPSSKSTSGGTAALGCLVKDYFPEPVTVSWNSGALTSGVHTFPAVLQSSGLYSLSSVVTVPSSSLGTQTYICNVNHKPSNTKVDKKVEPKSCDKTHTCPPCPAPEEQWGPMVFLFPPKPKDTLMISRTPEVTCVVVDVSDEEPEVKFNWYVDGVEVHNAKTKPREEQYNATYRVVSVLTVLHQDWLNGKEYKCKVSNKALPAPIEKTISKAKGQPREPQVCTLPPSRDELTKNQVSLWCLVKGFYPSDIAVEWESNGQPENNYKTTPPVLDSDGSFFLYSKLTVDKSRWQQGNVFSCSVMHEALHNHYTQKSLSLSP
chain 2: QDQLVQSGAEVKKPGASVKVSCKASGFNIKDTYIQWVRQAPGQGLEWMGRIDPLRKQTKYREKFEGRVTITADTSTNTAYMELSSLRSEDTAVYYCVRSGREFDYWGQGTLVTVSSASTKGPSVFPLAPSSKSTSGGTAALGCLVKDYFPEPVTVSWNSGALTSGVHTFPAVLQSSGLYSLSSVVTVPSSSLGTQTYICNVNHKPSNTKVDKKVEPKSCDKTHTCPPCPAPELLGGPSVFLFPPKPKDTLMISRTPEVTCVVVDVSHEEPEVKFNWYVDGVEVHNAKTKPREEQYNSTYRVVSVLTVLHQDWLNGKEYKCKVSNDALPAPIEETISKAKGQPREPQVYTLPPSRCELTKNQVSLSCAVKGFYPSDIAVEWESNGQPENNYKTTPPVLDSDGSFFLVSKLTVDKSRWQQGNVFSCSVMHEALHNHYTQKSLSLSP
chain 3: DIQMTQSPSSLSASVGDRVTITCRASQDIHKYIAWYQQKPGQAPRLLIQYTSTLQPGVPSRFSGSGSGTDYTFTISSLQPEDIATYYCLQYEQLRTFGGGTKVEIKRTVAAPSVFIFPPSDEQLKSGTASVVCLLNNFYPREAKVQWKVDNALQSGNSQESVTEQDSKDSTYSLSSTLTLSKADYEKHKVYACEVTHQGLSSPVTKSFNRGEC
Consider B2, for which the Kd turned out to be 320 nM in the experiment with FcgRIIa R; 0.17 nM in the experiment with FcgRIa; 0.53 nM with FcgRIIIa V; 230 nM with FcgRIIa H; 2200 nM with FcgRIIb; 3.3 nM with FcgRIIIa F.
